Key:
Assay in all cases: FP
[1] = target: RP2, fluorescein-labelled reference peptide from the N-terminal extension of the RHO GTPase WRCH1/RHOU (human, UniProt Q7L0Q8, fluorescein (FITC) label, position not stated)
[2] = target: RP1, fluorescein-labelled reference peptide, a SOS1 derivative encompassing part of P3 (human, UniProt Q07889, fluorescein (FITC) label, position not stated)
[3] = target: P3, fluorescein-labelled proline-rich peptide from the SOS1 proline-rich domain (human, UniProt Q07889, fluorescein (FITC) label, position not stated)
[4] = target: P7, fluorescein-labelled proline-rich peptide from the SOS1 proline-rich domain (human, UniProt Q07889, fluorescein (FITC) label, position not stated)
[5] = target: P4, fluorescein-labelled proline-rich peptide from the SOS1 proline-rich domain (human, UniProt Q07889, fluorescein (FITC) label, position not stated)
[6] = target: P9, fluorescein-labelled proline-rich peptide from the SOS1 proline-rich domain (human, UniProt Q07889, fluorescein (FITC) label, position not stated)
[7] = target: P2, fluorescein-labelled proline-rich peptide from the SOS1 proline-rich domain (human, UniProt Q07889, fluorescein (FITC) label, position not stated)

| Binder | Kd [1] | Kd [2] | Kd [4] | other results |
| --- | --- | --- | --- | --- |
| ARHGAP12 SH3 domain, GST cleaved (domain or fragment) PGQVYIEVEYDYEYEAKDRKIVIKQGERYILVKKTNDDWWQVKPDENSKAFYVPAQYVKEVTR | 15.5 µM | 16.7 µM | – | Kd [3]: 13.8 µM |
| ABL2 SH3 domain, GST cleaved (domain or fragment) SDPNLFVALYDFVASGDNTLSITKGEKLRVLGYNQNGEWSEVRSKNGQGWVPSNYITPVNS | – | 11 µM | 67.3 µM | Kd [5]: 125 µM |
| NCK1-3, third SH3 domain of NCK1, GST cleaved (domain or fragment) QVLHVVQALYPFSSSNDEELNFEKGDVMDVIEKPENDPEWWKCRKINGMVGLVPKNYVTVMQN | 2.5 µM | 24.6 µM | – | – |
| DLG2 SH3 domain, GST cleaved (domain or fragment) KRSLYVRAMFDYDKSKDSGLPSQGLSFKYGDILHVINASDDEWWQARRVMLEGDSEEMGVIPSKRRVERKE | – | – | 58.5 µM | – |
| BIN1 SH3 domain, GST cleaved (domain or fragment) GFMFKVQAQHDYTATDTDELQLKAGDVVLVIPFQNPEEQDEGWLMGVKESDWNQHKELEKCRGVFPENFTERVP | 48 µM | – | 12 µM | Kd [6]: 47 µM |
| NCK1-2 SH3 domain, GST cleaved (domain or fragment) DLNMPAYVKFNYMAEREDELSLIKGTKVIVMEKCSDGWWRGSYNGQVGWFPSNYVTEEGD | – | 2 µM | – | – |
| ABI1 SH3 domain, GST cleaved (domain or fragment) NYIEKVVAIYDYTKDKDDELSFMEGAIIYVIKKNDDGWYEGVCNRVTGLFPGNYVESIMH | – | – | – | Kd [7]: 60.7 µM; Kd [5]: 24.6 µM |
| ARHGEF30 (Obscurin/OBSCN) SH3 domain, GST cleaved (domain or fragment) EIFDIYVVTADYLPLGAEQDAITLREGQYVEVLDAAHPLRWLVRTKPTKSSPSRQGWVSPAYLDRRLK | – | – | 8.9 µM | – |

From PMC10814857 (2024)
